Reference: article PMC11194501
pKd: −log10 of the molar value.

Assays:
[1] = biological target: MBP-Cep63N (fusion of MBP and the N-terminal fragment of Cep63) (human) (UniProt Q96MT8); assay: ITC
[2] = biological target: Cep57N (Cep57 residues 56 to 251) (human) (UniProt Q86XR8); assay: ITC
[3] = biological target: Cep57S-KR (Cep57S with six Lys and Arg residues of the K/R motif replaced by Ala) (human) (UniProt Q86XR8); assay: pull-down; His-tagged Cep57S held on a Ni-NTA spin column, 0.1 mg α/β-tubulin added, 4 °C; 1X PBS pH 8.0, 1 mM 2-mercaptoethanol, 20 mM imidazole, 0.1% Triton X100, 10% glycerol; eluted with 400 mM imidazole, SDS-PAGE

Substance: Cep57N (Cep57 residues 56 to 251) (from UniProt Q86XR8 56-251) (domain or fragment)
- pKd [1]: 6.22

Substance: MBP-Cep63N (fusion of MBP and the N-terminal fragment of Cep63) (from UniProt Q96MT8-2 1-541) (domain or fragment)
- pKd [2]: 6.30
- stoichiometry N [2]: 0.6

Substance: α/β-tubulin (from UniProt P02550 1-451; P02554 1-445) (complex)
- reduction of tubulin binding against Cep57S [3]: 65%
